Measured values: US20140072613A1 (published 2014)

T1: Fms(h) (human, UniProt P07333 538-972, limits assumed)
T1 sequence (looked up): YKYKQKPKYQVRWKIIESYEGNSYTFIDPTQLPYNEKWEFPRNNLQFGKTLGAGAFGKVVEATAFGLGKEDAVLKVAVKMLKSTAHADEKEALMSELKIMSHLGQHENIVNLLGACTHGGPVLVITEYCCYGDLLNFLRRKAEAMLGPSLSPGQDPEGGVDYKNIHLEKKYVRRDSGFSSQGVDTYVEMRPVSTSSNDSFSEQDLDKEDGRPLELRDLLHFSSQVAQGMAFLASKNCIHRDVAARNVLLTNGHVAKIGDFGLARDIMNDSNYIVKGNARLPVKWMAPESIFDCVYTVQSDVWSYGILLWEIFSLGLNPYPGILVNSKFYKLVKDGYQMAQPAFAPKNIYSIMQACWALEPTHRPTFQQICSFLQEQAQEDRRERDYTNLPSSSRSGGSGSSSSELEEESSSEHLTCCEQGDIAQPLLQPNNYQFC

T2: TAO1(h) (human, UniProt Q7L7X3 1-314, limits assumed)
T2 sequence (looked up): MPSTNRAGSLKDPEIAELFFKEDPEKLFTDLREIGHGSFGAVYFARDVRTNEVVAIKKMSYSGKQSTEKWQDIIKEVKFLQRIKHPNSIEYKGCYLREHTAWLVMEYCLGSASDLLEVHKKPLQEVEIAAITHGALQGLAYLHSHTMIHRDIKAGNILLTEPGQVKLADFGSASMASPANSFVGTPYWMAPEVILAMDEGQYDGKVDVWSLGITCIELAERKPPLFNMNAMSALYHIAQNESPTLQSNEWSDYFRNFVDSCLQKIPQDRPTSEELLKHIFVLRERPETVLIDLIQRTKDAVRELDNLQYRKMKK

T3: EphA3(h) (human, UniProt P29320 566-983, limits assumed)
T3 sequence (looked up): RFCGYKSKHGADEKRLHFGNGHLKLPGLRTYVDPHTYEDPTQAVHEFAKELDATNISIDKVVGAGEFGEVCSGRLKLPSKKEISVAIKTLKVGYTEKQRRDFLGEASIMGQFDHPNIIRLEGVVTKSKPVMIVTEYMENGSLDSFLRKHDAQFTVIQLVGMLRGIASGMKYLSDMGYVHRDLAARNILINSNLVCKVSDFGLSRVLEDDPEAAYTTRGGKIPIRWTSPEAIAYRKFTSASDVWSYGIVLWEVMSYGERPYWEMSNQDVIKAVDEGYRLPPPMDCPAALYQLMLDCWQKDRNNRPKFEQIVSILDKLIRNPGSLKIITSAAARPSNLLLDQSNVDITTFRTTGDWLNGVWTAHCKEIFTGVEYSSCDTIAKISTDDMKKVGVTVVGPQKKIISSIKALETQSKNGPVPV

T4: Ron(h) (human, UniProt Q04912 983-1400, limits assumed)
T4 sequence (looked up): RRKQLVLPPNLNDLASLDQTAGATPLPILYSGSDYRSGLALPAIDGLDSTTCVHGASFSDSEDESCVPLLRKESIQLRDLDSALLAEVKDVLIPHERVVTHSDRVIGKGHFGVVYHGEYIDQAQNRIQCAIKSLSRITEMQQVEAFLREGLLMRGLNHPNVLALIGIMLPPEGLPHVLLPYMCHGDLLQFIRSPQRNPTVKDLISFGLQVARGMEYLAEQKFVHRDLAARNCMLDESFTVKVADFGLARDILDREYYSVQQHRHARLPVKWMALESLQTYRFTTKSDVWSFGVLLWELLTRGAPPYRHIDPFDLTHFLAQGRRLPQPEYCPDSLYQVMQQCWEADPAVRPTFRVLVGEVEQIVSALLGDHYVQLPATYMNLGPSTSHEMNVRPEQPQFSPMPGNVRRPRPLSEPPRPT

T5: PrKX(h) (human, UniProt P51817 1-358)
T5 sequence (looked up): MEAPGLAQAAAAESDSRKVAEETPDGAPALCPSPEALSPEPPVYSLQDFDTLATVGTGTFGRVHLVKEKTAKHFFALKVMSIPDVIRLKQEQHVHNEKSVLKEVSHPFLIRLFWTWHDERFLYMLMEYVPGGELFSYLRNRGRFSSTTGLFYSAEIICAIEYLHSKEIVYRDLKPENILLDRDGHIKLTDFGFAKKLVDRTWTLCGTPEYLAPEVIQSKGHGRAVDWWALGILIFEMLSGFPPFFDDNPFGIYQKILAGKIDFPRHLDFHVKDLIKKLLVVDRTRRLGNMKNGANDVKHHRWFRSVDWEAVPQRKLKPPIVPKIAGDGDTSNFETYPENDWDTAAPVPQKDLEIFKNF


Tests used:
Assay in all cases: cell-based or functional assay
STK33(h) = STK33(h) (human, UniProt Q9BYT3 1-514, limits assumed)
PAK2(h) = PAK2(h) (human, UniProt Q13177 1-524)
FGFR1(V561M)(h) = FGFR1(V561M)(h) (human, UniProt P11362 456-765, limits assumed)
Fms(h) = target: T1, Fms(h)
TAO1(h) = target: T2, TAO1(h)
Tie2(Y897S)(h) = Tie2(Y897S)(h) (human, UniProt Q02763 771-1124, limits assumed)
MLK1(h) = MLK1(h) (human, UniProt P80192 132-413, limits assumed)
Rsk1(h) = Rsk1(h) (human, UniProt Q15418 1-735)
CK2(h) = CK2(h) (human)
CDK7/cyclinH/MAT1(h) = CDK7/cyclinH/MAT1(h) (human, UniProt P50613 1-346; P51946 1-323; P51948 1-309)
EphA3(h) = target: T3, EphA3(h)
Ron(h) = target: T4, Ron(h)
PrKX(h) = target: T5, PrKX(h)

Chain of FGFR1(V561M)(h) (P11362 456-765 V561M limits assumed): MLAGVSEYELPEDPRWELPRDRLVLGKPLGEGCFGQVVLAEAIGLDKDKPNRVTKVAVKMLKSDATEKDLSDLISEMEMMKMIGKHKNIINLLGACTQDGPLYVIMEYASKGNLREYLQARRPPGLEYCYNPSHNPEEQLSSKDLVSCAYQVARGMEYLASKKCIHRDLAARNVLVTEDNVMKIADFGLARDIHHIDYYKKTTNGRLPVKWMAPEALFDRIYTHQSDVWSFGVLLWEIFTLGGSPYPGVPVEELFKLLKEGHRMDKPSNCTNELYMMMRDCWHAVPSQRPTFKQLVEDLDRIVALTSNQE
Chain of PAK2(h) (Q13177 whole entry): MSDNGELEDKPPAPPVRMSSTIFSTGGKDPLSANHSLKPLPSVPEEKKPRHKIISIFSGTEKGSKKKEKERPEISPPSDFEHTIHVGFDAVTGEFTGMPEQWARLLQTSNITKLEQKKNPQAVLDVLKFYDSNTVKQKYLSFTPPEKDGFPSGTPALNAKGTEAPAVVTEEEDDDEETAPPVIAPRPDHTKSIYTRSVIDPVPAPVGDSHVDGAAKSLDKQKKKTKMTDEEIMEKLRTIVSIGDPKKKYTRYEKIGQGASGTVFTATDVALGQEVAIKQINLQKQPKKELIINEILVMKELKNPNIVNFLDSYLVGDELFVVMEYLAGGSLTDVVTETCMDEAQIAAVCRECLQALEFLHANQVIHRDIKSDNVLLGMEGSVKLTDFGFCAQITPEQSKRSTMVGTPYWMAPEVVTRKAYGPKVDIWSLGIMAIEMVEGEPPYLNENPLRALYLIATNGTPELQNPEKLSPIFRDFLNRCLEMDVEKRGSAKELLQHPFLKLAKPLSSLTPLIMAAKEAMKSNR
Chain of Tie2(Y897S)(h) (Q02763 771-1124 Y897S limits assumed): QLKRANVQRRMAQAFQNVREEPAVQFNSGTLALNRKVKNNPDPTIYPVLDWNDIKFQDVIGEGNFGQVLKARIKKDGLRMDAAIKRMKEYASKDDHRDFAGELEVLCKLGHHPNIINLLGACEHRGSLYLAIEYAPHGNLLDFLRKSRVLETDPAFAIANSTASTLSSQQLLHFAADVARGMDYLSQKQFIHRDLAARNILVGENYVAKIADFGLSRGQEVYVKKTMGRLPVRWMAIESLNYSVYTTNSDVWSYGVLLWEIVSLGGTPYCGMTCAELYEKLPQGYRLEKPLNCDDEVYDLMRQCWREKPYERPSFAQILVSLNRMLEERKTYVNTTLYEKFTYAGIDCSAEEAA
Chain of CDK7/cyclinH/MAT1(h) (P50613 whole entry, chain 1 of 3): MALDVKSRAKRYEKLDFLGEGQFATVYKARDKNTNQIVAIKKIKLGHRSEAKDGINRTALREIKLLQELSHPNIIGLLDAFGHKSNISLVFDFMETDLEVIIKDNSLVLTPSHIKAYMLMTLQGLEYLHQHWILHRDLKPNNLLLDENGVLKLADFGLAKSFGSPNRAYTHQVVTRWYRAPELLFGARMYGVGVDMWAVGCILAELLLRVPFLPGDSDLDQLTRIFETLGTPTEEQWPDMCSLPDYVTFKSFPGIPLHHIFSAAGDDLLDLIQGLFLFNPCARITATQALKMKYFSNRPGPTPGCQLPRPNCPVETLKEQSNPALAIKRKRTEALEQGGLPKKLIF
Chain of CDK7/cyclinH/MAT1(h) (P51946 whole entry, chain 2 of 3): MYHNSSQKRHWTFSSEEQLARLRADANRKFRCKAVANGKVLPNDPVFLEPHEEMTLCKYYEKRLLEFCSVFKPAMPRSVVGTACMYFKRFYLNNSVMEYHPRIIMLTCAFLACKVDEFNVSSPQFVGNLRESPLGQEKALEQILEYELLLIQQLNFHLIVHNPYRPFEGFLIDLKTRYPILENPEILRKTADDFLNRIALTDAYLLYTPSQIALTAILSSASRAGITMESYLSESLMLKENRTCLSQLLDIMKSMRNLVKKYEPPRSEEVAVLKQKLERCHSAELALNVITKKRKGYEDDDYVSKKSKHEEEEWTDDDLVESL
Chain of CDK7/cyclinH/MAT1(h) (P51948 whole entry, chain 3 of 3): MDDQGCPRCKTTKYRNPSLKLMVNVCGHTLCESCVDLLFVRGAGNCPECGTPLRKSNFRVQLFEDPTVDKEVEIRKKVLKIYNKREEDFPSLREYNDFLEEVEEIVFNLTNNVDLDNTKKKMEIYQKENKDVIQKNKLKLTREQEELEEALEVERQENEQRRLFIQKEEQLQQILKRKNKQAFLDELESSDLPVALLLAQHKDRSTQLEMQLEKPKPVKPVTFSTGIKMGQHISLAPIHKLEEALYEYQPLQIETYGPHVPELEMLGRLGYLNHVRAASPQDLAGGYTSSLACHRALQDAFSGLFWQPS
Chain of STK33(h) (Q9BYT3 whole entry): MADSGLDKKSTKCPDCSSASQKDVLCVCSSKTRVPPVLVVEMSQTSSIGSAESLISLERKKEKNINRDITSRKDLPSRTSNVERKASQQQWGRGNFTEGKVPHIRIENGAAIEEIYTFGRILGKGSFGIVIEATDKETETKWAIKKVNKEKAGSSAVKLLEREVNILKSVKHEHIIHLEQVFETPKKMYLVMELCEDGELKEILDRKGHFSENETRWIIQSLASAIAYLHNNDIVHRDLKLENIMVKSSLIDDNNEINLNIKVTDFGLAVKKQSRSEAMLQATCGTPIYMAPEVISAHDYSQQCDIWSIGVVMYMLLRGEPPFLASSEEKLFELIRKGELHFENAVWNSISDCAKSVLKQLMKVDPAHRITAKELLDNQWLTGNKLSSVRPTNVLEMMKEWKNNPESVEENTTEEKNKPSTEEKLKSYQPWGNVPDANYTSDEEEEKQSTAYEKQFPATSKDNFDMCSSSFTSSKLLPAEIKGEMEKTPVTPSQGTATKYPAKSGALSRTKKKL
Chain of MLK1(h) (P80192 132-413 limits assumed): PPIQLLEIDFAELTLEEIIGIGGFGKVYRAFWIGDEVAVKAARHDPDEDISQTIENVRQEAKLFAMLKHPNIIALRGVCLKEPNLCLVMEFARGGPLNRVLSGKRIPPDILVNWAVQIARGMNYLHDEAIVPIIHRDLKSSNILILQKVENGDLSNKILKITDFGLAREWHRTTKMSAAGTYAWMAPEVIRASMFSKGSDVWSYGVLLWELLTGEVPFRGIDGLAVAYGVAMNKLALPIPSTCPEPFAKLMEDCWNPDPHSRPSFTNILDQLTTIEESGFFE
Chain of Rsk1(h) (Q15418 whole entry): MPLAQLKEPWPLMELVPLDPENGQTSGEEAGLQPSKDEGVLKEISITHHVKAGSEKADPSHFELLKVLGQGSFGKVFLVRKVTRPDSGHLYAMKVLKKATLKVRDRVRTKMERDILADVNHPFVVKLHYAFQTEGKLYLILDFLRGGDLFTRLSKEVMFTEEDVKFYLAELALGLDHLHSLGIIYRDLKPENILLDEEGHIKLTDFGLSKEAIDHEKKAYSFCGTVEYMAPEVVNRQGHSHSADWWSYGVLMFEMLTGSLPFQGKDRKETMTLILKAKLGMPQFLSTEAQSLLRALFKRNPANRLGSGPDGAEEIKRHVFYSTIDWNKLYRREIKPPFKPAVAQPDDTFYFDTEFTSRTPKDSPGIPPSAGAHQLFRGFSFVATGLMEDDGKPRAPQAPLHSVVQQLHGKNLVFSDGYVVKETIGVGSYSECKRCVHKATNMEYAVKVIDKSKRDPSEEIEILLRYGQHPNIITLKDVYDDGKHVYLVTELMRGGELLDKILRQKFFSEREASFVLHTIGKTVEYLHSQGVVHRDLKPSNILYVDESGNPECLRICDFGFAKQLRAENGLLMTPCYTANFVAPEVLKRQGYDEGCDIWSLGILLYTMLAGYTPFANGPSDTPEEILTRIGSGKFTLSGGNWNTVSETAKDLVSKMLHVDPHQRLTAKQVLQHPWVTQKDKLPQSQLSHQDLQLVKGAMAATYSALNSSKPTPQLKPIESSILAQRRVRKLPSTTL

| Binder | % activity, 100 µM (STK33(h)) | % activity, 100 µM (PAK2(h)) | % activity, 100 µM (FGFR1(V561M)(h)) | % activity, 100 µM (Fms(h)) | % activity, 100 µM (TAO1(h)) | % activity, 100 µM (Tie2(Y897S)(h)) | % activity, 100 µM (MLK1(h)) | % activity, 100 µM (Rsk1(h)) | % activity, 100 µM (CK2(h)) | % activity, 100 µM (CDK7/cyclinH/MAT1(h)) | % activity, 100 µM (EphA3(h)) | % activity, 100 µM (Ron(h)) | % activity, 100 µM (PrKX(h)) |
| --- | --- | --- | --- | --- | --- | --- | --- | --- | --- | --- | --- | --- | --- |
| KAFAKLAARLYRKALARQLGVAA [MMI-0400] | 52% | 59% | 74% | 37% | 73% | 87% | 33% | 54% | 101% | 47% | 12% | 79% | 76% |
| FAKLAARLYRKALARQLGVAA [MMI-0300] | 45% | 65% | 74% | 45% | 82% | 83% | 40% | 46% | 90% | 65% | 6% | 93% | 61% |
